Assay results taken from patent US20230158141A1 (YAFEI SHANGHAI BIOLOG MEDICINE SCIENCE AND TECHNOLOGY, published 2023).
Where a chain is given by its changes, count along the chain named. In names and notes the source's numbering stands. Like-named read-outs stand apart in the source and are kept apart here.

Legend:
PD-1 [1] = target: T1, PD-1 (UniProt Q15116 25-167, limits assumed); assay: ELISA, OD mutant/OD WT; B=70-90%
PD-1 [2] = target: T1, PD-1; assay: ELISA, OD mutant/OD WT; ↓=less than 70%
PD-1 [3] = target: T1, PD-1; assay: ELISA, OD mutant/OD WT; B=70-90%; remark: listed apart in the source
CTLA-4 [4] = target: T2, CTLA-4 (UniProt P16410 36-162, limits assumed); assay: ELISA, OD mutant/OD WT; A=90-110%
T2 sequence (P16410 36-162 limits assumed): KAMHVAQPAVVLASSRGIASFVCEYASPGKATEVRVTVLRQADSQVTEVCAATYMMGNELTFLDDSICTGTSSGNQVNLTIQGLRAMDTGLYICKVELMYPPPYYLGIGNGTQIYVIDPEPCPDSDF

CTLA-4 [5] = target: T2, CTLA-4; assay: ELISA, conjugate vs WT antibody
CTLA-4 [6] = target: T3, CTLA-4 (UniProt P16410 36-162, limits assumed); assay: ELISA; S47 on the Cys
T3 construct: also called CTLA-4 protein
T3 sequence (P16410 36-162 limits assumed): as above

T1 sequence (Q15116 25-167 limits assumed): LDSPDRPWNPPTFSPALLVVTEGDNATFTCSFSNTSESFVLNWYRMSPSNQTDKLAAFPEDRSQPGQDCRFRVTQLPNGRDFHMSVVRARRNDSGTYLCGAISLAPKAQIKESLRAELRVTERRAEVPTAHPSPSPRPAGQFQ

B1: anti-PD-1 antibody 1 heavy chain I51C (antibody, human IgG4 S228P, kappa, V domains shown)
VH: QVQLVQSGVEVKKPGASVKVSCKASGYTFTNYYMYWVRQAPGQGLEWMGGCNPSNGGTNFNEKFKNRVTLTTDSSTTTAYMELKSLQFDDTAVYYCARRDYRFDMGFDYWGQGTTVTVSS
VL: EIVLTQSPATLSLSPGERATLSCRASKGVSTSGYSYLHWYQQKPGQAPRLLIYLASYLESGVPARFSGSGSGTDFTLTISSLEPEDFAVYYCQHSRDLPLTFGGGTKVEIKR
binding activity (OD after mutation/OD wild type) (PD-1 [1]): 70 to 90%

B2: anti-PD-1 antibody 1 heavy chain K63C (antibody, human IgG4 S228P, kappa, V domains shown)
VH: B1 VH with C51I, K63C
VL: B1 VL
binding activity (OD after mutation/OD wild type) (PD-1 [1]): 70 to 90%

B3: anti-PD-1 antibody 1 heavy chain Y35C (antibody, human IgG4 S228P, kappa, V domains shown)
VH: B1 VH with Y35C, C51I
VL: B1 VL
binding activity (OD after mutation/OD wild type) (PD-1 [1]): 70 to 90%

B4: anti-PD-1 antibody 1 heavy chain Y32C (antibody, human IgG4 S228P, kappa, V domains shown)
VH: B1 VH with Y32C, C51I
VL: B1 VL
binding activity vs wild type (PD-1 [2]): < 70%

B5: anti-PD-1 antibody 1 heavy chain K65C (antibody, human IgG4 S228P, kappa, V domains shown)
VH: B1 VH with C51I, K65C
VL: B1 VL
binding activity vs wild type (PD-1 [2]): < 70%

B6: anti-PD-1 antibody 2 heavy chain A61C (antibody, human IgG4 S228P, kappa, V domains shown)
VH: QVQLVESGGGVVQPGRSLRLDCKASGITFSNSGMHWVRQAPGKGLEWVAVIWYDGSKRYYCDSVKGRFTISRDNSKNTLFLQMNSLRAEDTAVYYCATNDDYWGQGTLVTVSS
VL: EIVLTQSPATLSLSPGERATLSCRASQSVSSYLAWYQQKPGQAPRLLIYDASNRATGIPARFSGSGSGTDFTLTISSLEPEDFAVYYCQQSSNWPRTFGQGTKVEIKR
binding activity (OD after mutation/OD wild type) (PD-1 [1]): 70 to 90%

B7: anti-PD-1 antibody 2 heavy chain Y60C (antibody, human IgG4 S228P, kappa, V domains shown)
VH: B6 VH with Y60C, C61A
VL: B6 VL
binding activity vs wild type (PD-1 [2]): < 70%

B8: anti-PD-1 antibody 2 heavy chain K65C (antibody, human IgG4 S228P, kappa, V domains shown)
VH: B6 VH with C61A, K65C
VL: B6 VL
binding activity vs wild type (PD-1 [2]): < 70%

B9: anti-PD-1 antibody 2 heavy chain D54C (antibody, human IgG4 S228P, kappa, V domains shown)
VH: B6 VH with D54C, C61A
VL: B6 VL
binding activity (OD after mutation/OD wild type) (PD-1 [1]): 70 to 90%

B10: anti-PD-1 antibody 2 heavy chain Y53C (antibody, human IgG4 S228P, kappa, V domains shown)
VH: B6 VH with Y53C, C61A
VL: B6 VL
binding activity vs wild type (PD-1 [2]): < 70%

B11: anti-PD-1 antibody 2 heavy chain D101C (antibody, human IgG4 S228P, kappa, V domains shown)
VH: B6 VH with C61A, D101C
VL: B6 VL
binding activity (OD after mutation/OD wild type) (PD-1 [1]): 70 to 90%

B12: anti-PD-1 antibody 2 light chain I58C (antibody, human IgG4 S228P, kappa, V domains shown)
VH: B6 VH with C61A
VL: B6 VL with I58C
binding activity (OD after mutation/OD wild type) (PD-1 [3]): 70 to 90%

B13: anti-PD-1 antibody 2 heavy chain K57C (antibody, human IgG4 S228P, kappa, V domains shown)
VH: B6 VH with K57C, C61A
VL: B6 VL
binding activity vs wild type (PD-1 [2]): < 70%

B14: anti-PD-1 antibody 2 heavy chain Y59C (antibody, human IgG4 S228P, kappa, V domains shown)
VH: B6 VH with Y59C, C61A
VL: B6 VL
binding activity vs wild type (PD-1 [2]): < 70%

B15: anti-PD-1 antibody 2 heavy chain D62C (antibody, human IgG4 S228P, kappa, V domains shown)
VH: B6 VH with C61A, D62C
VL: B6 VL
binding activity vs wild type (PD-1 [2]): < 70%

B16: anti-CTLA-4 antibody heavy chain A61C (antibody, human IgG1, kappa, V domains shown)
VH: QVQLVESGGGVVQPGRSLRLSCAASGFTFSSYTMHWVRQAPGKGLEWVTFISYDGNNKYYCDSVKGRFTISRDNSKNTLYLQMNSLRAEDTAIYYCARTGWLGPFDYWGQGTLVTVSS
VL: not shown
binding activity (OD after mutation/OD wild type) (CTLA-4 [4]): 90 to 110%

B17: anti-CTLA-4 antibody light chain T98C-R4-1 (antibody, human IgG1, kappa, V domains shown)
VH: B16 VH with C61A
VL: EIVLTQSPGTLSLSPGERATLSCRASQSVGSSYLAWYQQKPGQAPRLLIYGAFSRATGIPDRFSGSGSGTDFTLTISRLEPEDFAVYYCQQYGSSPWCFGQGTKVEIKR
modifications: R4-1 on Cys 98
binding activity (% of WT) (CTLA-4 [5]): 91%

B18: anti-CTLA-4 antibody light chain S54C-R4-1 (antibody, human IgG1, kappa, V domains shown)
VH: B16 VH with C61A
VL: not shown
modifications: R4-1 on Cys 54
binding activity (% of WT) (CTLA-4 [5]): 97.7%

B19: anti-CTLA-4 antibody light chain S95C-R4-1 (antibody, human IgG1, kappa, V domains shown)
VH: B16 VH with C61A
VL: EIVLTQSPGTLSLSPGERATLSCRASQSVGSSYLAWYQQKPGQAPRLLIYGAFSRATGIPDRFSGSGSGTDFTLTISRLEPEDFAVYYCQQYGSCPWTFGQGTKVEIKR
modifications: R4-1 on Cys 95
binding activity (% of WT) (CTLA-4 [5]): 95.4%

B20: Ipilimumab L32 Tyr to Cys (antibody, V domains shown)
VH: B16 VH with C61A
VL: not shown
modifications: chain 2 pos 33 (Kabat L32): introduced Cys carrying the conjugated group of the row (R4-7, R4-8 or S47), written C
Activity after S47 (40 kD) blocking (CTLA-4 [6]): 13%

B21: anti-CTLA-4 antibody light chain G30C-R4-1 (antibody, human IgG1, kappa, V domains shown)
VH: B16 VH with C61A
VL: not shown
modifications: R4-1 on Cys 30
binding activity (% of WT) (CTLA-4 [5]): 95.3%
